This data set in a line: yeast display, Sf9 membrane polyspecificity reagent, FACS + sequencing; frameworks hold sequencing errors. The essentials: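 In a synthetic yeast display library (Saccharomyces cerevisiae BJ5465), nanobody expression was induced with galactose for 36–48 hours. FACS gates were set low and high (top ~1%) using anti-HA fluorescence for expression and streptavidin fluorescence for binding of the Sf9 membrane reagent. Each polyreactivity label is drawn from the gate of origin.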
Regarding “QVQLVESGGGLVQAGGSLRLSCAASGRTFWYYAMGWYRQSPGKERELVAVITSGSSTYYADSVKGRFTISRDNAKNTVYLQMNSLKPEDTAVYYCAVGRTYRRYSAASYNYWGQGTQVTVSS”, the “polyreactivity (PSR sort gate)” value is reported as “high polyreactivity”.
In the case of “QVQLVESGGGLVQAGGSLRLSCAASGYIFYDNAMGWYRQAPVKERELVAAISASGGDTYYADSVKGRFTISRDNAKNTVYLQMNSLKPDDTAVYYCAADLITYAMEYWGQGTQVTVSS”, the “polyreactivity (PSR sort gate)” value is reported as “low polyreactivity”.
To “QVQHVESGGGLVQAGVSLRLSCAASGLTFTRYAMGWDRQAPGKERELVAAISWSGGSTYYADSVKGRFTISRDNAKNTVYLQMNSLKPEDTAVYYCAAEPYKQYTGYYYSGFEFWGQGTQVTVSS” belongs “high polyreactivity”; to “QVQLVESGGGLVQAGGSLRLSCAASGIIFHFNAMGWYRQARGKERELVASITRGGNTNYADSVKGRFTISRDNAKNTVYLQMNSLKPEDTAVYYCAAKYRSRYDWGQGTQVTVSS”, “low polyreactivity”.
For “QVQLVESGGGLVQAGGSLRLSCAASGRTIIYNTMGWYRQAPGKEREFVAAINWSGGSTYYADSAKGRFTISRDNAKNTVYLQMNSLKPEDTAVYYCNAEAGYYRALIYDYWGQGTQVTVSS”, the “polyreactivity (PSR sort gate)” value is reported as “low polyreactivity”.
As for “QVQLVESGGGLVQAGGSLRLSCAASGLILNYYTMGSYRQAPGKERELVATISSSTGSTYYADSVKGRFTISRDNAKNTVYLQMNSLKPEDTAVYYCAADHWSYWQIYEYWGQGTQVTVSS”, the “polyreactivity (PSR sort gate)” value was “low polyreactivity”.
As for “QVQLVESGGGLVQAGGSLRLSCAASGLTFVYYAMGWYRQAPGKERELVAAISSGGRTYYADSVKGRFTISRDNAKNTVYLQMNSLKPEDTGVYYCAAYGGTHYTYRYDYWGQGTQVNVSS”, the entry is “high polyreactivity”.
In the case of “QVQLVESGGGLVQAGGSLRLSCAASGNTFYSYAMGWYRQAPGKERELVAAITWGGRRKFADSVKGRFTSSRDNAKITVYLQMNSLKPEDTAVYYCAARLFHGKTKFDYSGQGTQVTVSS”, the “polyreactivity (PSR sort gate)” value was “high polyreactivity”.
For “QVQLVDSGGGLVQAGGSLRLSCAASGGTFKYYAMGWYRQAPGKERELVAAITWSGGSTYYADSVKGRFTISRDNAKNTVYLQMNSLKPEDTAVYYCNAAYSQIRFNYWGQGTQVTVSS”, the “polyreactivity (PSR sort gate)” value was “high polyreactivity”.
As for “QVQLVESGGGLVQAGGSLRLSCAASGYIFRIYAMGWYRQAPGKERELVATITNGGSTHYADSVKGRFTISRDNAKNTVYLQMNSLKPEDTAVYYCAADLLYSEYDYWGQGTQVTVSS”, the entry is “high polyreactivity”.
In the case of “QVQLVESGGGLVQAGGSLRLSCAASGFLFGYSAMGWYRQAPGKERELVAAISYACRSTYYADSVKGRFTISRDNAKNTVYLQMNSLKPEDTAVYYCAKYGQSNYDWGQGTQVTVSS”, the “polyreactivity (PSR sort gate)” value is listed as “high polyreactivity”.
To “QVQLVESGGGLVQAGGSLRLSCAASGLIFTTNAMGWSRPAPGTEREFVAAISPSGGSTYYADSVKGRFTISRDNAKNTVYLQMNSLKPEDTAVYYCAARYSPVWHKYYYWGQGTQVTVSS” belongs “high polyreactivity”; to “QVQHVESGGGLVQAGGSLRLSCAASGRIFWYYAMGWYRQAPGKERELVAASTRGGITTYADSVKGRYTISRDNAKNTVYLQMNSLKPEDTAVYYCNAVRWYGRMDYWGQGTQVTVSS”, “low polyreactivity”.
With “QVQLVESGGGLVQAGGILRLSCAASGYIFGPNAMGCYRQAPGKERELVAGITWSTGNTYYAVSVKGRFTISRDNAKNTVYLHMNSLKPEDTAVYYCAADFYVAYEGVQPYWMDYWGQGTQVNVSS”, the “polyreactivity (PSR sort gate)” value is listed as “low polyreactivity”.
For the sequence “QVQLVESGGGLVQAGGSLRLSCAASGRTFYHNTIGGYRQQPGKERELVAVINDSGTRTYYADSVKGRFTISRDNAKNTVYLQMNSLKPEDTAVYYCAARSYVGGAILGYWGQGTQVTVSS”, the “polyreactivity (PSR sort gate)” value is recorded as “high polyreactivity”.
As to “QVQLVESGGGLVQAGGSLRLSCAASGRIFRYYAMGWYRQAPGKEREFVAAITYIGGSTYYADSVKGRFTISRDNAKNTVYLQMNSLKPEDTAVYWGQGTQVTVSS”, the “polyreactivity (PSR sort gate)” value is given as “low polyreactivity”.
As for “QVQLVESGGGLVQAGGRLRLSCAASGRIFKRYAMGWYRQAPGKESELVAAISWRGGSTYYADSVKGRFTISRDNAKNTVYFQMNSLKPEDTAVYYCAAGYFSYRRYDYWGQGTQVTVSS”, the entry is “high polyreactivity”; as for “QVQLVESGGGLVQAGGSLRLSCAASGRIFVRYAMGWYRQAPGKERELVAAINWRGSSTYYADSVKGRFTISRDNAKNTVYLQMTSLKPEDTAVYYCNTAQRYRVYRYDYWGQGTQVTVSS”, “high polyreactivity”; as for “QVQLVESGGGLVQAGGSLRLSCAASGSIFHGNAMGWNRQAPGKERELVATISSGGSTYYADSVKGRFTISRDNAKNTVYLQMNSLKPEDTAVYYCAAEYWNGPYYGDPFEYDYWGQGTQVTVSS”, “low polyreactivity”.
To “QVQLVESGGGLVQAGGSLRLSCAASGFTFWRNAMGWYRQAPGKERELVAAISSGTGRTYYADSVKGRFTISRDNAKYTVYLQMNSLKPEDTAVYYCAKVNWRTSYGTSTRDYWGQGTQVTVSS” belongs “low polyreactivity”; to “QVQLVESGGGLVQSGGSLRLSCAAYGLILTHYSMGRYRQAPGKESELVAAIDYGGGSNTYYADSVKGLFTISRDNAKNTDYLQMNSLKPEDTAVYYCAAYRAGNSYDPRLNYWGQGTQVTVSS”, “high polyreactivity”; to “QVQLVESGGGLVQAGGSLRLSCAASGRIFPTYTMGWYRQAPGKERELVAAITSGGTTYYADSVKGLFTISRDNAKNTVYLQMNSLKPEDTAVYSCAALRPRRGYYYWGQGTQVTVSS”, “high polyreactivity”.
To “QVQLVESGGGLVQAGGSLRLRCGASGRTFSSNAMGWYRQAPGKERELVAVITRRGGSTYYADSVKGLFTISRDNAMNNVYLQMNSLKPEDTAVYYCATVAPPQRSGRRSAGEKYYYWGQGTQVTVSS” belongs “high polyreactivity”.
For “QVQLVESGGGLVQAGGSLRLSCAASGLTFYYYAMGWYRQAPGKQRELVAAINSSGGITFYADSVKGRFTISRDNAKNTFYLQMNSLKPEDTAVYYCASGGRSNRYGYWGQGTQVTVSS”, the “polyreactivity (PSR sort gate)” value is listed as “low polyreactivity”.
As for “QVQLVESGGGLVQAGASLRVSCAASGSTFNYNAMGWYRQAPGKERELVAAITYSGSSTYYSDSVKGRFTISRDNAKNTVYLQMNSLKPEYTAVYYCAADYWFRYGTYEYWGQGTQVSVSS”, the entry is “high polyreactivity”; as for “QVQFVESGGGLVQAGGSLRLSCAASGSTFQGYAMGWYRQAPGKERELVAAISRSGGRTYYADSVKGRFTISRDNAKNTVYLQMNSLKPEDTAVYYCAAEGHELTEGDSWGQGTQVTVSS”, “low polyreactivity”.
As for “QVQLVESGGGLVQAGGSLRLSCAASGSIFYLNAMGWYRQAPGKERELVATISNGGSTNYADSVKGRFTISRDNAKNTVYLQMNSLKPEDTAVYYCATGVIREGDYWGQGTKVTVSS”, the “polyreactivity (PSR sort gate)” value was “low polyreactivity”.
Consider “QVQLVESGGGLVQAGGSLRLTCAASGFIFRKYTMGWYRQAPGKERELVATLDSSGGSTYYADSVKGRFTISRDNAKNTVYLQMNSLKPEDTAVYYCNADLRELSPWYWYSGEMDYWGQGTQVTVSS”, for which the “polyreactivity (PSR sort gate)” value is on record as “low polyreactivity”.
As for “QVQLVESGGVLVQAGGSLRLSCAASGSIFGNYAMGWYRQAPGKETELVAAISYRGGSTYYADSVKGRFTISRDNAKNTVYLQMNSLKPEDTAVYYCNAGGRRRIFAHSSTGDYWGQGTQVTVSS”, the “polyreactivity (PSR sort gate)” value was “high polyreactivity”.
In the case of “QVQLVESGGGLVQAGGSLRLSCAASGRTLYKNTMGWYRPAPGKERELVAAINYSGGSTYYADSVKGRFTISRDNAKNTVYLQMNSLKPEDTAVYYCAADYYDSTGEYDYWGQGTQVTVSS”, the “polyreactivity (PSR sort gate)” value is “high polyreactivity”.
“QVQLVESGGGLVQAGGSLRLSCAASGSTFFGYAMGWYRQAPGKERELVAAITYTGDTTYYADSVKGRFTISRDNAKNTVYLQMNSLNPEDTAVYYCAAGGYPVYTGRGMDYWGQGTQVTVSS”: the “polyreactivity (PSR sort gate)” value is “low polyreactivity”.
With “QVQLVESGGGLVQAGGSLRLICGASGLTSWYNAMGWYRQAPGKEREFVAAISFSGGRTFYADSVKGRFTISRDNAKNTVYLQMNSLKPEDTAVYYCNADVYGFDYWGQGTQVTVSS”, the “polyreactivity (PSR sort gate)” value is “high polyreactivity”.
With “QVQLVESGGGLVQAGGSLRLSCAASGSTFVYNAMGWYRQAPGKERELVAAITVIGGRTYYADSVKGRFTISRDNAKNTVYLQMISLKPEDTAVYYCNADATESIGYYDEYEYWGQGTQVTVSS”, the “polyreactivity (PSR sort gate)” value is reported as “low polyreactivity”.
For “QVQIVESGGGLVQAGGSLRLSCAASGNNFRYNTMGWYRQAPGKERELVAVITRRGSSTYYADSVKGRCTISRDNAKNTVYLQMNRLKPEDTAVYYCAAAPYYVTLVTRRDYWGQGTQVTVSS”, the “polyreactivity (PSR sort gate)” value is reported as “high polyreactivity”.
On to “QVQLVESGVGLVQAGGSLSLSCAASGIIFYWYAMGWYRQAPGKEREMVATITSTGGSTNYADSVKGRFTISRDNAKNSVYVQMNSLKPEYTAVYYCSTSGPQYYSRNFDYWGQGTQVTVSS”, for which the “polyreactivity (PSR sort gate)” value is listed as “low polyreactivity”.
To “QVQLVESGGGLVQAGGSLRLSCAASGRIFTAYYAMGWYRQEPGKESELVASISSSGTSTYADSVKGRFTISRDNAKNSVYLQMISLKPEDTAVYYCATRKLRTRRYDYGYWGQGTQVTVSS” belongs “low polyreactivity”; to “QVQLVESGGGLVQAGGSLRLSCAASGRTFNVYAMGWYRQAPGKERELVAGISSSGGSTYYADSVKGRFTISRDNAKNTVYLQMNSLKPEDTAVYYCNTVYKYHGVRPYGYWGQGTQVTVSS”, “high polyreactivity”; to “QVQLVESGGGLVQAGGSLRLSCAASGFIFRWNAMGWYRQAPGKERELVAAITSGGGTNYADSVKGRFTISRDNAKNTVYLQMNSLKPEDTAVYYCNASYRRYSNYYKYGYWGQGTQVTVSS”, “high polyreactivity”.
To “QVQLVESGGGLFHAGGSLRLSCPDSGSTFYRYTMGCYRQAPGKERELVAAITSGGGTDYADSVKARFTISRDNAKNTVYLQLISLKPEDTAVYFCADFLSWRDYYLYWRGSWREDYWGQGTQVTVSS” belongs “low polyreactivity”; to “QVQLVESGGGLVQAGGSLRLICAASVSTFVRNAMGLYRQAPGKERELVAAISRSGGRTYYADSVKGRFTISRDNAKNTVYLQMNSLKPEDTSVYYCAADGKSVYDYWGQGTQVTVSS”, “high polyreactivity”.
As for “QVQLVESGGGLVQAGGSLRLSCAASGSIFRGNAMGWYRQAPGKERELVAAITSRGTSTYYADSVKGRFTISRDNAKNTVYLQMNSLKREDTAVYYCAARGYYLYWGQGTQVTVSS”, the entry is “high polyreactivity”.
